Experimental data from patent CN114702578A (BAISI MEDICAL DIAGNOSTICS TECH BEIJING CO LTD, dated 2022).

Target: T1, 新型冠状病毒野生型Spike RBD蛋白 (新型冠状病毒野生型 (SARS-CoV-2 wild type), UniProt P0DTC2 319-537)
T1 construct: domain: Spike RBD
Experiment: ELISA binding experiment (Fig. 3)

B1: 克隆号为3A7C12的抗体 (antibody, V domains shown)
VH: EVQLVESGGGLVKPGGSLRLSCAASGFTFSSYSMNWVRQAPGKGLEWVSSISSGSSYIYFADSVKGRFTISRDNAKNSLFLQMNSLRAEDTATYYCARAPLGYDSSGYFTMYYFDYWGQGTLVTVSS
VL: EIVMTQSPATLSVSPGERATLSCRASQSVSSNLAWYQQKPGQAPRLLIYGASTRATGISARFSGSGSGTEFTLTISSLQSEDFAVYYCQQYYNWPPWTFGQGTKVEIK
notes: also called 3A7C12克隆号抗体
binding result: no binding
